This note sets out measurements from patent US20100130423.

For data set [1], the target named is adaptor protein LnK, wild type (UniProt Q9UQQ2).
In data set [2] the target is LnK PH domain (from V5-LnK mutant constructs) (UniProt Q9UQQ2).

As to JAK2 V617F, the “tyrosine phosphorylation of LnK (anti-phosphotyrosine immunoprecipitation, LnK Western blot)” value in data set [1] is “the phosphorylation levels of LnK itself are higher in 293T cells expressing JAK2 V617F compared with cells expressing JAK2 WT”. Moreover, in data set [2], the “JAK2 V671F autophosphorylation levels” value was “The LnK PH domain associates with and inhibits JAK2 V671F”.
